In patent publication US20240270846A1 (published 2024):
Where a chain is given by its changes, count along the chain named. Names and notes keep the numbering of the source.

B1: CE115HA000 H96K one-arm antibody (antibody, human IgG1, kappa, L234A L235A, N297A, name in Kabat numbering)
heavy: QVQLVESGGGVVQPGRSLRLSCAASGFTFSNAWMHWVRQAPGKGLEWVAQIKAKSNNYATYYAESVKGRFTISRDDSKNSLYLQMNSLKTEDTAVYYCRYVKYGAYYGVDAWGQGTTVTVSSASTKGPSVFPLAPSSKSTSGGTAALGCLVKDYFPEPVTVSWNSGALTSGVHTFPAVLQSSGLYSLSSVVTVPSSSLGTQTYICNVNHKPSNTKVDKKVEPKSCDKTHTCPPCPAPEAAGGPSVFLFPPKPKDTLMISRTPEVTCVVVDVSHEDPEVKFNWYVDGVEVHNAKTKPREEQYASTYRVVSVLTVLHQDWLNGKEYKCKVSNKALPAPIEKTISKAKGQPREPQVYTLPPSRCELTKNQVSLSCAVKGFYPSDIAVEWESNGQPENNYKTTPPVLDSDGSFFLVSKLTVDKSRWQQGNVFSCSVMHEALHNHYTQKSLSLSPDYKDDDDK
chain: EPKSSDKTHTCPPCPAPELLGGPSVFLFPPKPKDTLMISRTPEVTCVVVDVSHEDPEVKFNWYVDGVEVHNAKTKPREEQYNSTYRVVSVLTVLHQDWLNGKEYKCKVSNKALPAPIEKTISKAKGQPREPQVCTLPPSRDELTKNQVSLWCLVKGFYPSDIAVEWESNGQPENNYKTTPPVLDSDGSFFLYSKLTVDKSRWQQGNVFSCSVMHEALHNRYTQKSLSLSP
light: DIVMTQSPLSLPVTPGEPASISCRSSQSLVHSNRNTYLHWYQQKPGQAPRLLIYKVSNRFSGVPDRFSGSGSGTDFTLKISRVEAEDVGVYYCGQGTQVPYTFGQGTKLEIKRTVAAPSVFIFPPSDEQLKSGTASVVCLLNNFYPREAKVQWKVDNALQSGNSQESVTEQDSKDSTYSLSSTLTLSKADYEKHKVYACEVTHQGLSSPVTKSFNRGEC
notes: one-arm antibody (one Fab)
B2: CE115HA000 H96L one-arm antibody (antibody, human IgG1, kappa, L234A L235A, N297A, name in Kabat numbering)
heavy: B1 heavy with K102L
chain: B1 chain
light: B1 light
notes: one-arm antibody (one Fab)
B3: CE115HA000 H96P one-arm antibody (antibody, human IgG1, kappa, L234A L235A, N297A, name in Kabat numbering)
heavy: B1 heavy with K102P
chain: B1 chain
light: B1 light
notes: one-arm antibody (one Fab)
B4: CE115HA000 H96Q one-arm antibody (antibody, human IgG1, kappa, L234A L235A, N297A, name in Kabat numbering)
heavy: B1 heavy with K102Q
chain: B1 chain
light: B1 light
notes: one-arm antibody (one Fab)
B5: CE115HA000 H96R one-arm antibody (antibody, human IgG1, kappa, L234A L235A, N297A, name in Kabat numbering)
heavy: B1 heavy with K102R
chain: B1 chain
light: B1 light
notes: one-arm antibody (one Fab)
B6: CE115HA000 H96S one-arm antibody (antibody, human IgG1, kappa, L234A L235A, N297A, name in Kabat numbering)
heavy: B1 heavy with K102S
chain: B1 chain
light: B1 light
notes: one-arm antibody (one Fab)
B7: CE115HA000 H96Y one-arm antibody (antibody, human IgG1, kappa, L234A L235A, N297A, name in Kabat numbering)
heavy: B1 heavy with K102Y
chain: B1 chain
light: B1 light
notes: one-arm antibody (one Fab)
B8: CE115HA000 K64Q one-arm antibody (antibody, human IgG1, kappa, L234A L235A, N297A, name in Kabat numbering)
heavy: B1 heavy with K67Q, K102H
chain: B1 chain
light: B1 light
notes: one-arm antibody (one Fab)
B9: CE115HA000 K64S one-arm antibody (antibody, human IgG1, kappa, L234A L235A, N297A, name in Kabat numbering)
heavy: B1 heavy with K67S, K102H
chain: B1 chain
light: B1 light
notes: one-arm antibody (one Fab)
B10: CE115HA000 K75R one-arm antibody (antibody, human IgG1, kappa, L234A L235A, N297A, name in Kabat numbering)
heavy: B1 heavy with K78R, K102H
chain: B1 chain
light: B1 light
notes: one-arm antibody (one Fab)
B11: CE115HA000 K75T one-arm antibody (antibody, human IgG1, kappa, L234A L235A, N297A, name in Kabat numbering)
heavy: B1 heavy with K78T, K102H
chain: B1 chain
light: B1 light
notes: one-arm antibody (one Fab)
B12: CE115HA000 L78I one-arm antibody (antibody, human IgG1, kappa, L234A L235A, N297A, name in Kabat numbering)
heavy: B1 heavy with L81I, K102H
chain: B1 chain
light: B1 light
notes: one-arm antibody (one Fab)
B13: CE115HA000 N53Q one-arm antibody (antibody, human IgG1, kappa, L234A L235A, N297A, name in Kabat numbering)
heavy: B1 heavy with N56Q, K102H
chain: B1 chain
light: B1 light
notes: one-arm antibody (one Fab)
B14: CE115HA000 N53S one-arm antibody (antibody, human IgG1, kappa, L234A L235A, N297A, name in Kabat numbering)
heavy: B1 heavy with N56S, K102H
chain: B1 chain
light: B1 light
notes: one-arm antibody (one Fab)
B15: CE115HA000 N53W one-arm antibody (antibody, human IgG1, kappa, L234A L235A, N297A, name in Kabat numbering)
heavy: B1 heavy with N56W, K102H
chain: B1 chain
light: B1 light
notes: one-arm antibody (one Fab)
B16: CE115HA000 N53Y one-arm antibody (antibody, human IgG1, kappa, L234A L235A, N297A, name in Kabat numbering)
heavy: B1 heavy with N56Y, K102H
chain: B1 chain
light: B1 light
notes: one-arm antibody (one Fab)
B17: CE115HA000 N54L one-arm antibody (antibody, human IgG1, kappa, L234A L235A, N297A, name in Kabat numbering)
heavy: B1 heavy with N57L, K102H
chain: B1 chain
light: B1 light
notes: one-arm antibody (one Fab)
B18: CE115HA000 N54Q one-arm antibody (antibody, human IgG1, kappa, L234A L235A, N297A, name in Kabat numbering)
heavy: B1 heavy with N57Q, K102H
chain: B1 chain
light: B1 light
notes: one-arm antibody (one Fab)
B19: CE115HA000 N54S one-arm antibody (antibody, human IgG1, kappa, L234A L235A, N297A, name in Kabat numbering)
heavy: B1 heavy with N57S, K102H
chain: B1 chain
light: B1 light
notes: one-arm antibody (one Fab)
B20: CE115HA000 N54Y one-arm antibody (antibody, human IgG1, kappa, L234A L235A, N297A, name in Kabat numbering)
heavy: B1 heavy with N57Y, K102H
chain: B1 chain
light: B1 light
notes: one-arm antibody (one Fab)
B21: CE115HA000 N76S one-arm antibody (antibody, human IgG1, kappa, L234A L235A, N297A, name in Kabat numbering)
heavy: B1 heavy with N79S, K102H
chain: B1 chain
light: B1 light
notes: one-arm antibody (one Fab)
B22: CE115HA000 N82aD one-arm antibody (antibody, human IgG1, kappa, L234A L235A, N297A, name in Kabat numbering)
heavy: B1 heavy with N86D, K102H
chain: B1 chain
light: B1 light
notes: one-arm antibody (one Fab)
B23: CE115HA000 Q105E one-arm antibody (antibody, human IgG1, kappa, L234A L235A, N297A, name in Kabat numbering)
heavy: B1 heavy with K102H, Q114E
chain: B1 chain
light: B1 light
notes: one-arm antibody (one Fab)
B24: CE115HA000 S62P one-arm antibody (antibody, human IgG1, kappa, L234A L235A, N297A, name in Kabat numbering)
heavy: B1 heavy with S65P, K102H
chain: B1 chain
light: B1 light
notes: one-arm antibody (one Fab)
B25: CE115HA000 S74P one-arm antibody (antibody, human IgG1, kappa, L234A L235A, N297A, name in Kabat numbering)
heavy: B1 heavy with S77P, K102H
chain: B1 chain
light: B1 light
notes: one-arm antibody (one Fab)
B26: CE115HA000 S77T one-arm antibody (antibody, human IgG1, kappa, L234A L235A, N297A, name in Kabat numbering)
heavy: B1 heavy with S80T, K102H
chain: B1 chain
light: B1 light
notes: one-arm antibody (one Fab)
B27: CE115HA000 T57N one-arm antibody (antibody, human IgG1, kappa, L234A L235A, N297A, name in Kabat numbering)
heavy: B1 heavy with T60N, K102H
chain: B1 chain
light: B1 light
notes: one-arm antibody (one Fab)
B28: CE115HA000 V95A one-arm antibody (antibody, human IgG1, kappa, L234A L235A, N297A, name in Kabat numbering)
heavy: B1 heavy with V101A, K102H
chain: B1 chain
light: B1 light
notes: one-arm antibody (one Fab)
B29: CE115HA000 V95D one-arm antibody (antibody, human IgG1, kappa, L234A L235A, N297A, name in Kabat numbering)
heavy: B1 heavy with V101D, K102H
chain: B1 chain
light: B1 light
notes: one-arm antibody (one Fab)
B30: CE115HA000 V95E one-arm antibody (antibody, human IgG1, kappa, L234A L235A, N297A, name in Kabat numbering)
heavy: B1 heavy with V101E, K102H
chain: B1 chain
light: B1 light
notes: one-arm antibody (one Fab)
B31: CE115HA000 V95G one-arm antibody (antibody, human IgG1, kappa, L234A L235A, N297A, name in Kabat numbering)
heavy: B1 heavy with V101G, K102H
chain: B1 chain
light: B1 light
notes: one-arm antibody (one Fab)
B32: CE115HA000 V95K one-arm antibody (antibody, human IgG1, kappa, L234A L235A, N297A, name in Kabat numbering)
heavy: B1 heavy with V101K, K102H
chain: B1 chain
light: B1 light
notes: one-arm antibody (one Fab)
B33: CE115HA000 V95S one-arm antibody (antibody, human IgG1, kappa, L234A L235A, N297A, name in Kabat numbering)
heavy: B1 heavy with V101S, K102H
chain: B1 chain
light: B1 light
notes: one-arm antibody (one Fab)

target: T1, CD3 epsilon homodimer protein (UniProt P07766 23-126); assay: SPR Biacore T200, CD3 epsilon homodimer on CM4 chip, antibody as analyte;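 note: Amine-coupled CD3 epsilon homodimer, run at 25 °C in HBS-EP+ buffer, ratio is bound amount of each single-residue H chain variant over that of the parent antibody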
T1 construct: Immobilized on Sensor chip CM4 by amine coupling; construct not described; also called CD3 (CD3 epsilon)
T1 sequence (P07766 23-126): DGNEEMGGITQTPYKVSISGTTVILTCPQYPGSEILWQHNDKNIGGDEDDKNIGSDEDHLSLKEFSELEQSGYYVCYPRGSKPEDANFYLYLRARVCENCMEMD

Point of comparison: B25, “ratio of amounts bound (Y/X vs CE115HA000)” value 0.91. Against it:
- B1 — lower, 0.35
- B2 — lower, 0.14
- B3 — lower, 0.12
- B4 — lower, 0.42
- B5 — lower, 0.46
- B6 — lower, 0.44
- B7 — lower, 0.17
- B8 — lower, 0.89
- B9 — lower, 0.84
- B10 — higher, 1.01
- B11 — lower, 0.84
- B12 — higher, 1.34
- B13 — higher, 1.1
- B14 — lower, 0.83
- B15 — lower, 0.88
- B16 — lower, 0.63
- B17 — higher, 0.94
- B18 — lower, 0.84
- B19 — lower, 0.84
- B20 — higher, 1.09
- B21 — higher, 0.92
- B22 — lower, 0.73
- B23 — higher, 0.94
- B24 — higher, 1
- B26 — lower, 0.9
- B27 — higher, 0.97
- B28 — lower, 0.11
- B29 — lower, 0.24
- B30 — lower, 0.24
- B31 — lower, 0.19
- B32 — lower, 0.64
- B33 — lower, 0.22
